The data set is described as follows: protease stability score; higher = more stable; yeast display proteolysis, trypsin and chymotrypsin.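 Also: relative to predicted unfolded state with 0 unfolded-like and 1 meaning tenfold more protease.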
For the sequence “DEEDEDAHYALKLLLKMVHTGNEEDMQRYLDPNVRVEQGDYHYHGREASEIIKNRFKNVKVKVDHYEIQGEYVNLKVTIDVNGKHKQSTIIVHKFDGRWLIEKIIII”, the protease stability score is 2.48.

As to “DEEDEDARVALEEVMRSQITGDEEKSEKLIDPHVRLEIGDKIYHGRELVVRVEHELGVKHIEPKKVEMQGDWIDLHGVIVYGDKKIHQTLHLLKFNGKWLIKEIRIK”, the protease stability score worked out at 1.6.

Take “DEEDEDIHRLFHELVEALLTGDERTLLRLIDPHARLIIGDKHFHGRELIVKIIYEMLRELRVHSINMHHIDVIGEKVVLDVHIHVEQGDKHRIIRVNIISKKIDGRWLIKSIKVH”: the protease stability score is 1.16.

With “DEEDEEFKRAMDDWIRAILTGDEQRVEELFDPNVRFQVNGKETVGRDFLIHYVREWRLDSKVDIKRSEVQGDKVRVDVTMKLTIDVNGQRIHDQHKVTIIAEKIDGRWEIKELIVH”, the protease stability score amounted to 0.676.

“DEEDEELHRILQLLKEYWKTGDWERFHELADPNPLLIINGVENHGMDSVKHAWEEFRRRIDHNEKIEDKDSKRQGEFIVLHVKVDGHVNGRRTETDMHIILLIVNGKVKDVEIRIR” came in with a protease stability score of 1.38.

In turn, “DEEDEELRRLLELLLRLYMTGDEHTLQTLADPHMKVRFHWDGREIRDHGRDALERHLKEWRVNDMDVNHFEAFNGRNMIDGILDGIINGVERRHKLELHFDLVNGRVKSVEIVLR” yielded a protease stability score of 1.08.

In turn, “DEEDEERTWAWEIFVKIIRTGDEQKLHEMADPHVRLHVGDKHEHGREELVKFFIDYILSLGVDHIEVHLKREDRINGRIHIDSKLRIEVGDKEITNNTHVLFLKVDGKWILKQVEIK” came in with a protease stability score of -0.11.

In turn, “DEEDEESHRLMRETIHLLLTGDEEVWAQLADPDVRVLFNGVDYHGREEFLRIWHHMVKEIRVDKHEIKTIEVQGDKVLSDIRMHVEFNGKRTKVRVNLRLQSINGRTKYLSIHIH” came in with a protease stability score of 1.21.

With “DEEDEETREIAEMLHRWFITGDWKALMKYVDPNMRNIIHVNGRNIHTHGWKDMVKDLKDLGLENIHVDLKSISFQGDKAHIDGQLRVGDKEEKVEIHSEVVNGRIKRLEIRVH”, the protease stability score stood at 1.9.

For the sequence “DEEDEHALRMARLWWKALTTGDEELLHKLMDPDVRVEINGVEIHGRETYERFLHKLRRDLGVKHIEIQFHHIELYGEKIIIEGTIFIRQGDKEHKERSIIILVVVDGRIKSSKIILL”, the protease stability score turned out to be 2.19.

With “DEEDEHFEEVLRRTRHVWKTGDWRRLHELFDPNTRIHVNGRDVIGREEASRIIYEMLRQADHFHYRIRRFEIQGDKIHSEIEVIIIVNGRLIRLDTHVVAIKVNGRWVIESEEIR”, the protease stability score was found to be 1.48.

“DEEDEHLHQFLEDFKHNLKTGNFEAISKNADPHVRVIFNGRRFHGMENVKRLWEELGVDHVRIDHFELIDGRIDLNTTIEQGDKHRRTRLHILIVNGRIKSIHIHFE” showed a protease stability score of 1.16.

The sequence “DEEDEHVKKAAEDFLRWWLTGDESRLLELFDPNMLLIIGDKHIHGRESVVHFFSELRERLGIDHIELEDVHIREVNGRAEFHSHILLHINGQKVKVDVRIHFHKVNGRWLFEHEHVEIR” yielded a protease stability score of 1.32.

“DEEDEIAEKIMRIILRAFTTGDEETVEKLVDPHARLEFNGRETHGRESWFKLMHHLRIRRMRIHNERIHTQGDFSLSHVRIEFDGEINGKRVEDETRMEIRVIVVNGVVKSVSLSTE”: the protease stability score stood at 1.35.

As to “DEEDEILERLFKLWIEEFLTGDWEAFHRYFDPRTRIHIGDKHHHGRTEYEKVAKHLNKRIDHVIIIIRRMEHQGDYIKVDTESRHKIDGVDISTHYILHHRIVDGKIHEIDVIYL”, the protease stability score was found to be 0.647.

Consider “DEEDEILERNFRKMLEDWKTGDEEMYSKLIDPHAKVDYNGREFVGREYAVEVWHKMGVDHIILRRSDVQGDKIKLDFESRQGDKSSNLKMESEKVNGVWLLHSVRYE”, for which the protease stability score came out at 1.11.

In turn, “DEEDEILRHFLEEFWRAIRTGDEDTLMHLMDPHAKEEVNGRELHGRHEISRHLVKLGIKHMHIDDSKRYGDKITLHITVEVNGRKIDLEVYAIKVDGRWKIEHSQIK” came in with a protease stability score of 1.05.

The sequence “DEEDEITDRLAKLLQHAYHTGDWKLWLNLADPHVRVDFNGVEIHGREEITDWFRKHYRDLGVTRFEVHVHHIHNIGDKIVQETHLLVNGRTFRTEVTIIVINGRVKSEHVNLR” registered a protease stability score of 0.848.

With “DEEDEITHKMLRRWFEILATGNEHLFQHYADPNVLVRYEVGDKEWRLHGREEALRYWSELRIHELKVEHFTEVGDKVHMDTRRKGEFDGRRDTKKTRVHIVIIDGRLHNVELRIV”, the protease stability score was determined as 1.14.

Turning to “DEEDEKTRRMAELWSKWKSTGDEELFHHFADPRTRLEIGDKKYHGRDLISKIWFKERKEIRSDINIKDVDVFNGVAILHGTLILEINGQRDSIDVTFHIVLINGRIHEVRVEWR”, the protease stability score came out at 0.73.

“DEEDELAEHLLHIIIDALETGDWKFFADYFDPHTRLEIEIGDKRFQLHGRESIRKRWEEIWRELGVKHREIKSTRLIGDKIEMDVTINVGDKRIRHHIVIVIVNGRMKKEMVIVR” had a protease stability score of 1.19.

Turning to “DEEDELFEIFIREWRRLVKTGNFKEIVDNADPHAKSVINGKELVGREHMSRLMLELGIKYYDERSWDVYGDKVVIHGREKFNGRESESIVFAEKVNGRWVLTKVEIR”, the protease stability score is 1.45.

The sequence “DEEDELLERTLKEVAHAWRTGDWRRIEEMFDPNARVDINGVNFVGREEMHRILHEMRIEIEDFKLRRKRIVDGRLELDGEMLGIFRQGDKERRHRSRVFIVILKIDGRWVFEEVRFH” gave a protease stability score of 2.43.

Sequence “DEEDELLMKVLTEWFHALRTGDEEKLDELADPNVRIEIGDKELHGMEVWQEYLRRYDHDRQDKVHFRTHEKQGNKLILDVEEDVVIEVNGKRIRTHVRSEIILVKINGRWVFTSIIVH” displayed a protease stability score of 1.34.

Sequence “DEEDELMKEYFELFWRDLLTGNEELLENLVDPHVRVKVGDKEFHGRHLLSKLASDMGVDHIQIEDMRVQGDKLSIDTTVDVNGKRRRMTLRARKVNGRWFFTELEVR” showed a protease stability score of 1.5.

Sequence “DEEDELSEELSRFSLKTLRTGDEDLLSRNMDPHVRMDIDGQDLHGREHVIKFLKDWNRMFGIKHTELKHVRIQGNWIEIHARIQVGDKEMDLRIYAVKIDGRWLVHSIEVEKK” returned a protease stability score of 0.182.

“DEEDELSHQIAEEFFRFFSTGNEEKSKELLDPDVRVESEDHHDHGMHKLLHLWNRIDHIHMRSRHVEFDRVGDFLEIRMRGHVILDVNGVRTEIDTELLLVVTKFDGRWLMHEVKFIIR” yielded a protease stability score of 0.696.

“DEEDEMAISLAKLFVDDLMTGNWRSLQHLLDPHTRLHVGDKEHHGRQKSVEWLKDLVRRIDHLEMDIHRLDVQGEKAESETESNVNIGDKEVRYHMELIILVVNGRVKEIEIRLG” had a protease stability score of 0.941.

“DEEDEQAKELSRIMMEVLRTGDEDMFTKLLDPNVRLEIGEKEDHGRERAMHWLIRFLYRIPNARFIWRDVDVHRINGRVLDTSDLQVRINGRDFKTFVITHIVKIDGRWRVTKLEVHIE” came in with a protease stability score of 1.56.

“DEEDEQLHRFAQLYFEAMVTGDEDLLRHLLDPHVRVHINGRELHGRENMAKWLKDFWDKYKNVQLNLHHIRVIGDKVHMDVEMDVNGREERVHIHVEMIDGVVHSSHHRIE” registered a protease stability score of 1.02.

With “DEEDEQREHLLELLFHFLRTGDEELLFRLADPRVRHVWNGRELHGRELVIEILDDELEKMGANHIHIDLERVRMVDGRLDVDGHIVIKIGDKSHFFDMHFHIRKIDGRWVIKDLTIR”, the protease stability score amounted to 0.853.

Sequence “DEEDERLHEFAKLFADLWFTGDEEELHDLIDPHAKLNVDVNGRILDSHGREEFVKVLRKLREHLGVDHVELKDMKVQGDKVIIHGVLIINGRRFDSTLWVYIFNGKIESMEVRMR” displayed a protease stability score of 1.69.

In turn, “DEEDERNLKLFHLAMLASITGNEELIEQLVDPDVRIEINGRDKHGRETLIKLLERFDHFQWHRFHWRRLEIQGNKIIMLLEVHGTIHIGEFKIKLQTDTISIVTKIDGRWTIKELYIK” registered a protease stability score of 1.62.

For the sequence “DEEDERSKEAMEHFLENEITGDWKRLHELFDPNARMHINGREYHGREEVTNKFWEHNYRMGVKHVEVRDLEVINGRVHLHVEQDVGEFHIELEVVIKKVNGRWLIEETEIHVR”, the protease stability score was found to be 0.987.

As to “DEEDEVLKLAFEFIRHQLETGDEDTLNRYVDPHARFEVNGRDIHGRDRYNRFLEELYRKHGVEIKDVLLQDNKSQGDKIRIDIKINIDVNGREVNFDVHIIALKINGKWIHKRQIDI”, the protease stability score was determined as 0.542.

“DEEDEYVEKATRFFIKSILTGNEEWVSRLADPHVRLWVGDKEFHGRERYVRVFHEHMRQIRYRDFKLHDIDRQGDKIIVIGRREVEVDGRIDTYEIHIYARKINGRWILESEIVN” gave a protease stability score of 0.936.

The sequence “DEEDEYYNMALEHFVKTILTGNWKRFKKLADPHVRMEIDGREHHGREEATKVFNRFDHIKNFDFRDIELQGEKIEVHGELHGTINGKDVHTSFHIIMYKVNGKWEEKEVKFQ” showed a protease stability score of 1.28.

“DEEDHDLELFLQIMTHDMRTGNEDNLTRLLDPHVRLEWNGKEFHGRDVMRFWREELGHDNVEVHMRLKDRELQGDKLIIHGEIIHRYNGREIRLDIHFIAHKVDGKWIARVRNIQ” returned a protease stability score of 1.64.

“DEEDHESHEMMRQHFEAFVTGDFESFTRYADPHVRLIVGDKHFHGRDLIVHVFLRLWHELGVKVSRIKEIHSVGDKMHLDGELHVGDKRFRLLVEARKFDGRWFNKRVELVIL” came in with a protease stability score of 1.48.

Sequence “DEEDHHLRQIFEELLRALVTGDEEFLEQMADPRTRFILIIDGRRIEWHGREEFFRHFHEWRLRNYRITHLESYNGRIRVEGEVDENFNGKERHTKTHHTIIVINGRLHSIVLNIH” registered a protease stability score of 1.72.

For the sequence “DEEDHILLEIMRRVFESIMTGDEDLFRELADPNVRIRIGNKEMVGWEHIVKTLRKEDEDLGAKHKSFTLDDEDLIGNYAHVEGTLHIEFNGKDIHRHIRINVEVIDGRVKSIRMEDK”, the protease stability score amounted to 0.936.

Turning to “DEEDHLMKHASEMFLHVMKTGDEDTLRRLVDPHVRLDWNGRKWHGRETVTRIIVENIHELGIDHIHLNHFEIYNGQADTNIEVRYNGKREEYHIHMHKVNGRWTVKSIHVTEE”, the protease stability score was found to be 1.5.

For “DEEDKALEESMRTYHESIHTGDEESFRLLFDPDVRMRINGVDLHGREAMEWMSERIDHLELRRIRFRSIETQGNKIRIDGHEDIEILVDGKRMRVIDRVIIQAVKVNGRWTIKSIKFG”, the protease stability score amounted to 1.15.

“DEEDKDLHRWLEESTHAMLTGDEQHLTELADPNVKFNFDGREIHGREEYVKFMHRWIRHAGFKHIHVETKDVRVQGNKLHVDTHSIHDYNGRRVRTDTRVFVEKINGRWRLHSIEIE” returned a protease stability score of 1.4.

Sequence “DEEDKEAHEMVNDALQDFLTGDEDSLRNLVDPNARFEAENHHLIGMETVEWHIREFKNVTIEVKRVDVEVQGDKAILRMNIDIRVNGKTIDEHWEVHVRKFNGQWIITIVKVEFR” came in with a protease stability score of 2.17.

“DEEDKFSREAIELWIRVLETGNEHLLHKLADPHVRVVFNGKESVGMEEFVEVLREIRIHTSRDRHVRLQGDKVDVDSIIDGEVNGVRTKVETQLIATKIDGRWVNQQVNWR” gave a protease stability score of 0.23.

The sequence “DEEDKHADWIMKQMVDLWTTGDEETSITLLDPNVKLHVDGRDIHGREKAMEWLRRFIVHLRIEIIIRHFDFQGNFARFHGELEIRIGDKSQVLETRLEIIVVNGKFRILEIELR” showed a protease stability score of 2.71.

These data come from the NTF2 design screens of Basanta et al. (2020).
